# Experimental data taken from the DeepSol protein solubility set.
# Test: soluble on expression in E. coli; label from the status in PepcDB or PDB records
row,Sequence,soluble on expression in E. coli
1,MHHHHHHSSGLVPRGSGMKETAAAKFERQHMDSPDLGTDDDDKAMADIGSEFMSTYHERPLGPASAAEWFRQRSYDYGQFPPEDLARRKRELGLTVSAVLPSRNVADTVGGIIDEIHALNERAPLIDQILVVDADSEDGTAGVAASHGAEVYSENELMSGYGDAHGKGDAMWRALSVTRGDLVLYIDADTRDFRPQLAYGVLGPVLEVPGVRFVKAAYRRPFRKGESIEEDGGGRVTELTAKPLFNLFYPELAGFVQPLAGEFVADRELFCSIPFLTGYAVETGIMIDVLKKVGLGAMAQVDLGERQNRHQHLRDLSRMSYAVVRAVARRLRQEGRLQQLREPGLPESFFQLSDYLHAVATPEGLKLQEYVEELVERPPINEVLRVR,soluble
2,MHHHHHHSSGRENLYFQGKLPEPQFYAEPHTYEEPGRAGRSFTREIEASRIHIEKIIGSGDSGEVCYGRLRVPGQRDVPVAIKALKAGYTERQRRDFLSEASIMGQFDHPNIIRLEGVVTRGRLAMIVTEYMENGSLDTFLRTHDGQFTIMQLVGMLRGVGAGMRYLSDLGYVHRDLAARNVLVDSNLVCKVSDFGLSRVLEDDPDAAYTTTGGKIPIRWTAPEAIAFRTFSSASDVWSFGVVMWEVLAYGERPYWNMTNRDVISSVEEGYRLPAPMGCPHALHQLMLDCWHKDRAQRPRFSQIVSVLDALIRSPESLRATATVS,soluble
3,MHHHHHHSSGRENLYFQGMTVREKTRLEKFRQLLSSQNTDLDELRKCSWPGVPREVRPITWRLLSGYLPANTERRKLTLQRKREEYFGFIEQYYDSRNEEHHQDTYRQIHIDIPRTNPLIPLFQQPLVQEIFERILFIWAIRHPASGYVQGINDLVTPFFVVFLSEYVEEDVENFDVTNLSQDMLRSIEADSFWCMSKLLDGIQDNYTFAQPGIQKKVKALEELVSRIDEQVHNHFRRYEVEYLQFAFRWMNNLLMRELPLRCTIRLWDTYQSEPEGFSHFHLYVCAAFLIKWRKEILDEEDFQGLLMLLQNLPTIHWGNEEIGLLLAEAYRLKYMFADAPNHYRR,soluble
4,MHHHHHHSSGRENLYFQGNAVLTWNNEILPNWETMWCSRKVRDLWWQGIPPSVRGKVWSLAIGNELNITHELFDICLARAKERWRSLSTGGSEVENEDAGFSAADREASLELIKLDISRTFPNLCIFQQGGPYHDMLHSILGAYTCYRPDVGYVQGMSFIAAVLILNLDTADAFIAFSNLLNKPCQMAFFRVDHGLMLTYFAAFEVFFEENLPKLFAHFKKNNLTPDIYLIDWIFTLYSKSLPLDLACRIWDVFCRDGEEFLFRTALGILKLFEDILTKMDFIHMAQFLTRLPEDLPAEELFASIATIQMQSRNKKWAQVLTALQKDSREMEKG,soluble
5,MHHHHHHSSGVDLGTENLYFQSMAHNKIPPRWLNCPRRGQPVAGRFLPLKTMLGPRYDSQVAEENRFHPSMLSNYLKSLKVKMGLLVDLTNTSRFYDRNDIEKEGIKYIKLQCKGHGECPTTENTETFIRLCERFNERNPPELIGVHCTHGFNRTGFLICAFLVEKMDWSIEAAVATFAQARPPGIYKGDYLKELFRRYGDIEEAPPPPLLPDWCFEDDEDEDEDEDGKKESETGSSASFG,soluble
6,MHHHHHHSSGVDLGTENLYFQSMGKVKATPMTPEQAMKQYMQKLTAFEHHEIFSYPEIYFLGLNAKKRQGMTGGPNNGGYDDDQGSYVQVPHDHVAYRYEVLKVIGKGSFGQVVKAYDHKVHQHVALKMVRNEKRFHRQAAEEIRILEHLRKQDKDNTMNVIHMLENFTFRNHICMTFELLSMNLYELIKKNKFQGFSLPLVRKFAHSILQCLDALHKNRIIHCDLKPENILLKQQGRSGIKVIDFGSSCYEHQRVYTYIQSRFYRAPEVILGARYGMPIDMWSLGCILAELLTGYPLLPGEDEGDQLACMIELLGMPSQKLLDASKRAKNFVSSKGYPRYCTVTTLSDGSVVLNGGRSRRGKLRGPPESREWGNALKGCDDPLFLDFLKQCLEWDPAVRMTPGQALRHPWLRRRLPKPPTGEKTSVKR,soluble
7,MHHHHHHSSGVDLGTENLYFQSMRPFLIGVSGGTASGKSTVCEKIMELLGQNEVEQRQRKVVILSQDRFYKVLTAEQKAKALKGQYNFDHPDAFDNDLMHRTLKNIVEGKTVEVPTYDFVTHSRLPETTVVYPADVVLFEGILVFYSQEIRDMFHLRLFVDTDSDVRLSRRVLRDVRRGRDLEQILTQYTTFVKPAFEEFCLPTKKYADVIIPRGVDNMVAINLIVQHIQDILNGDICKWHRGGS,soluble
8,MHHHHHHSSGVDLGTENLYFQSMSTDSVISSESGNTYYRVVLIGEQGVGKSTLANIFAGVHDSMDSDCEVLGEDTYERTLMVDGESATIILLDMWENKGENEWLHDHCMQVGDAYLIVYSITDRASFEKASELRIQLRRARQTEDIPIILVGNKSDLVRCREVSVSEGRACAVVFDCKFIETSAAVQHNVKELFEGIVRQVRLRRDSKEKN,soluble
9,MHHHHHHSSGVDLGTENLYFQSMTKTWTLKKHFVGYPTNSDFELKTSELPPLKNGEVLLEALFLTVDPYMRVAAKRLKEGDTMMGQQVAKVVESKNVALPKGTIVLASPGWTTHSISDGKDLEKLLTEWPDTIPLSLALGTVGMPGLTAYFGLLEICGVKGGETVMVNAAAGAVGSVVGQIAKLKGCKVVGAVGSDEKVAYLQKLGFDVVFNYKTVESLEETLKKASPDGYDCYFDNVGGEFSNTVIGQMKKFGRIAICGAISTYNRTGPLPPGPPPEIVIYQELRMEAFVVYRWQGDARQKALKDLLKWVLEGKIQYKEYIIEGFENMPAAFMGMLKGDNLGKTIVKA,soluble
10,MHISEVKTAFKIADVEYVKDSTKLNFNYLKDLKDENNQPLSQNILTQNVARVYLIVVNGEIKKIGGSQADGGIKSTLNIYKDGGVKGRPNIRSFGVWYFLYHTILTGAKIEFYMIYQPNFETQVKGLFGFCAIKDASISYKLLEQACLTDYRNNSNDALPEWNVQEQGKD,not soluble
11,MHLLLLHGFTSHPVLTLGPLSERLKEAGWEVRQPALPGHGTRPEDLLKVRFQDWLLAAEEAYLELPEPRGVVGLSMGGLLAAHLAARHPTKALVALAPAFALKNPLAPYLHWLIPRFPGPPSIEDPELRKRNPNYPYFPTRAVLELLALMRKTPEVLPRVKARALVVEAGKDRVVKGVDRYFALLGSPRKDHLVFPESGHDLLLDRDREEVARAVRDWLLASDNYLQ,soluble
12,MHLNNLNNFNNLENNGEYHCSGPIIKKPFRHIALTVPSSDITNFNEIFYVEPQYIAQAIRLTNTFQGAIDPLTLNFNFEKALQIANGLPNAGVTGTINQSVIHQTIEVSVMISQIKEIIRSVLGLVINSANFWNSVVSAITNTFTNLEPQVDENWIVWRNLSATQTSYFYKILFSIQNEDTGRFMAILPIAFEITVDVQKQQLLFITIKDSARYEVKMKALTVVQALDSYNAPIIDVFNVRNYSLHRPNHNILQNLNVNPIKS,soluble
13,MHNKWYWTFKHILWGPILRVYNRPEIHGLENIPDKGSAILASNHQAVMDSFYLPLMSPRQITFPAKQEYFTTPGFVGSLQRWFFTAVGQVPIDRTSKSASDDLLKTARMVLDRGDLFGIYPEGTRSPDGRIYRGKTGMARIALDTNVAVVPIAMIGSRDANPIGTWIPRPHKVVIKVGEAISPRSFVSDAGYDPDSYEAMRFFTDHVMKVLADLTGQQYVDLYAADVKKSLAAGKGYPEGA,not soluble
14,MHPIETPDKTFHDGDGVSELGTILPAWWLNQVQSELLAVLTAAGIQPDKSQPNQLLAALNRLAVVITGDQTVNGQKTFTAQTQFQSGIHLSANQTNWNGGHKAYIGADADNAHIVFGDDTLRLHGANNRISYNNHDIFHKANKPRFAEDIQGKPNTLSGYGIGNFKVETFRGDLNTLKTDGIYSLPTAVGSSNLPVENTACHIQVIAGTKHGWCRQLGYPAYTSDVYERHQTSSANDNWSAWKKLNSDGIPVGAIVSFPKAVQNPAGYLKANGTTFAQNTFPDLYRALGNSNRLPDLSRTDIGITAWFPSDQIPTGWLAFDDIRTRVTETAYPELYRLLTGKYGSIQNVPQAEDRFIRNAGNSLAVGTKQEDEIKRHVHKVFSHWTNHTDAAALGYEDRNERQRSALVSTWTDENLNDNGFLTPRSDSKMATGGDENRPKALVLKLCIKAADTLGEAVFWIKSHGETINAGALDAGTLAQGLQDKADRDHTHTAAQIQGLDEKISTAVAAQFTRQTIGGVDIVRFPDGTMIQTGSYRFTRSGGPIENEVVFPVAFADGNVKCFVSERHSERVTGDRRQHNWLFIRAKNHAAAIITNWYEGSCDWMAIGKAASGNAASSPIGPEIPETNEEPQRESGRTSTGPRNRRRRDGLLEALQD,not soluble
15,MHQNNGDYRVRGSRPSRSSEHAGPSLHCKKPEGSIRDTLRLSGSFKIYKEPMPELVCDIHLEKLAENIQKYSKIEERKYRENDMHVNDDSHSSDSRPTSDNEVSSSSDRNNDEPSVRRKRKSVENMCHEREHHGDHLQMQVASVIASNLGPMVEIVEKKLLQHKNAEKLLNDGREVFIKTLEEHNQKKEKVERKAKLVAIPPMKARNRRSSRNSLVYIDGPSTSESHSSMVQQVPIIDNIPEVLENETAVCSISSEADHNSRGIKDNQEFAIEISGEVSRTDDICDDFAVFLKKCTVLLTKFIDSYYDFRSTMKLKPEDAIEHWSAERLTKEEHAARVTRFDVAIARATRVQYNIDIKLLTKQSFVFDDDREAAINKRLARIERFVNEQHEEINWFCFSNFSLMDIGETKDRYCLGDFYDKAISMIPKVKDVPSVVQLAKECKMWSAFERILKQYNFEPLKVFEELQKMLEKDYFLPKGKIFCQFLLNVAQLFSYDVVKNEWSCIKQIDGTLFSGVPFDRDGNLLPTSQNSPTECSS,not soluble
16,MHRDSCPLDCKVYVGNLGNNGNKTELERAFGYYGPLRSVWVARNPPGFAFVEFEDPRDAADAVRELDGRTLCGCRVRVELSNGEKRSRNRGPPPSWGRRPRDDYRRRSPPPRRRSPRRRSFSRSRSRSLSRDRRRERSLSRERNHKPSRSFSRSRSRSRSNERK,soluble
17,MHRELLDALSVITEEEQRILDEQRGIDPQLYTEKKELIVDSEKLLKKGKLIQVRPHTRFVNFPKHKHNYVEVIYMCQGTTTHILNGSKVILEAGDLLFLNQNAEQEILPAGEQDIAVNFIVLPEFFDTAFSMMDMEEENALKEFLVGALCGKNDNTSYLYFHVAEILPIQNLVENMVWTIFYDQPNKRRCNQITMGLLLLQLLNHVDRMETGTAAFDRELTG,not soluble
18,MHRSTFIRTSGTSSRTLTARYRSQYTGLLVARVLFSTSTTRAQGGNPRSPLQIFRDTFKKEWEKSQELQENIKTLQDASGKLGESEAYKKAREAYLKAQRGSTIVGKTLKKTGETMEHIATKAWESELGKNTRKAAAATAKKLDESFEPVRQTKIYKEVSEVIDDGESSRYGGFITKEQRRLKRERDLASGKRHRAVKSNEDAGTAVVATNIESKESFGKKVEDFKEKTVVGRSIQSLKNKLWDESENPLIVVMRKITNKVGGFFAETESSRVYSQFKLMDPTFSNESFTRHLREYIVPEILEAYVKGDVKVLKKWFSEAPFNVYAAQQKIFKEQDVYADGRILDIRGVEIVSAKLLAPQDIPVLVVGCRAQEINLYRKKKTGEIAAGDEANILMSSYAMVFTRDPEQIDDDETEGWKILEFVRGGSRQFT,not soluble
19,MHRYPRPVSPPVYGPYGSGGHYNPYFHYGVSSFPSAPVHWPHLPSGHAAPPSYPMPYPKPGPLLPPPRPSFLAQFKNSDGTYDINKMMSTVGQMINTVNQVNGVLKGLLGTFKK,not soluble
20,MHTAEFLETEPTEISSVLAGGYNHPLLRQWQSERQLTKNMLIFPLFISDNPDDFTEIDSLPNINRIGVNRLKDYLKPLVAKGLRSVILFGVPLIPGTKDPVGTAADDPAGPVIQGIKFIREYFPELYIICDVCLCEYTSHGHCGVLYDDGTINRERSVSRLAAVAVNYAKAGAHCVAPSDMIDGRIRDIKRGLINANLAHKTFVLSYAAKFSGNLYGPFRDAACSAPSNGDRKCYQLPPAGRGLARRALERDMSEGADGIIVKPSTFYLDIMRDASEICKDLPICAYHVSGEYAMLHAAAEKGVVDLKTIAFESHQGFLRAGARLIITYLAPEFLDWLDEEN,soluble
